Experiments:
[1] = biological target: MCP-1 receptor B (CCR2B) (human) (UniProt P41597); experiment: cell-based or functional assay
[2] = biological target: MCP-1 receptor B (CCR2B) (human) (UniProt P41597); experiment: competition with 100 pM 125I-MCP-1 on CHO-CCR2B membranes, filtration; mean of 18 assays
[3] = biological target: MCP-1 receptor B (CCR2B) (human) (UniProt P41597); experiment: competition with 100 pM 125I-MCP-1 on CHO-CCR2B membranes, filtration; at least 2 assays
[4] = biological target: MCP-1 receptor B (CCR2B) (human) (UniProt P41597); experiment: cold competition of unlabelled MCP-1 against 100 pM 125I-MCP-1 on CHO-CCR2B membranes
[5] = biological target: MCP-1 receptor B (CCR2B) (human) (UniProt P41597); experiment: equilibrium binding of 125I-MCP-1 to CHO-CCR2B membranes
[6] = biological target: MCP-1 receptor B (CCR2B) (human) (UniProt P41597); experiment: competition with 100 pM 125I-MCP-1 on CHO-CCR2B membranes, filtration; mean of 8 assays

Work on “MCP1(9-76) (SEQ ID NO: 30) (from UniProt P13500 32-99) (ligand)” yielded a Calcium flux (IC50), THP-1 cells [1] of 45 nM, a Chemotaxis (IC50), THP-1 cells, 1 nM MCP-1 [1] of 12 nM and an IC50 [2] of 1.9 nM.

Work on “Met-MCP1(9-76) (SEQ ID NO: 31) (from UniProt P13500 32-99) (ligand)” yielded an IC50 [3] of 3.2 nM.

“Monocyte Chemoattractant Protein-1 (MCP-1) (from UniProt P13500 24-99) (ligand)” was tested, and the IC50 [4] was 0.11 nM, the Kd [5] was 0.12 nM and the rise in [Ca2+]i in THP-1 cells (EC50) [1] was 2 nM.

“[V9A]MCP1(9-76) (SEQ ID NO: 9) (from UniProt P13500 33-99) (ligand)” was tested, and the Calcium flux (IC50), THP-1 cells [1] was 109 nM, the Chemotaxis (IC50), THP-1 cells, 1 nM MCP-1 [1] was 23 nM and the IC50 [2] was 2.5 nM.

In the case of “[V9G]MCP1(9-76) (SEQ ID NO: 26) (from UniProt P13500 33-99) (ligand)”, the Chemotaxis (IC50), THP-1 cells, 1 nM MCP-1 [1] is reported as 10.9 nM and the IC50 [6] is reported as 3.2 nM.

Work on “[V9T]MCP1(9-76) (SEQ ID NO: 29) (from UniProt P13500 33-99) (ligand)” yielded a Chemotaxis (IC50), THP-1 cells, 1 nM MCP-1 [1] of 21 nM and an IC50 [6] of 2 nM.

“pGlu-MCP1(9-76) (SEQ ID NO: 32) (from UniProt P13500 32-99) (ligand)” gave a Calcium flux (IC50), THP-1 cells [1] of 117 nM and an IC50 [3] of 2.6 nM.
